“Also recorded” adds a separate entry of the source.
Legend:
chip-immobilized secPHEX = target: T1, chip-immobilized secPHEX (Homo sapiens, UniProt P78562); test: Surface plasmon resonance, secPHEX analyte on immobilized secPHEX; type: binding; conditions: 2 uM secPHEX
T1 construct: to generate a soluble, secreted form of PHEX; made in house; gift of Crine and Boileau, University of Montreal
T1 sequence (P78562 46-749 limits assumed): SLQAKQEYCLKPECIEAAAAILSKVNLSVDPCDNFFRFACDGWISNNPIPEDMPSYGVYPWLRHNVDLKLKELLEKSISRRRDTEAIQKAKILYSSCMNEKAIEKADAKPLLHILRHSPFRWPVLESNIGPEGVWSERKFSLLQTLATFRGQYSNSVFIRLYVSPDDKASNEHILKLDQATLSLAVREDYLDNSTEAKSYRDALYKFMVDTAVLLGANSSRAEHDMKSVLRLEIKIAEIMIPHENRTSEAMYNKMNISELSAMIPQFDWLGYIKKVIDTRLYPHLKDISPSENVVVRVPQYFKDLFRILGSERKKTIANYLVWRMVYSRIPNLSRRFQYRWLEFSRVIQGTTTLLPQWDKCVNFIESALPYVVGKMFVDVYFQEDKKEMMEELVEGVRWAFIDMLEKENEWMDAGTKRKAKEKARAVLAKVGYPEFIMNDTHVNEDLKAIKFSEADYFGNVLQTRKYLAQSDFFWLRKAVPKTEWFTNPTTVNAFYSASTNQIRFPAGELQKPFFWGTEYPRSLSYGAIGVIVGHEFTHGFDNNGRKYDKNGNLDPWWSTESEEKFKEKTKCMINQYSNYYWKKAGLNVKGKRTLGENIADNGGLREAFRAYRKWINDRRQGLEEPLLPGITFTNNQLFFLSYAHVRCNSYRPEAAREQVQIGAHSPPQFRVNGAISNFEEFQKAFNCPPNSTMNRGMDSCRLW
From the text: (§1) Surface Plasmon Resonance (SPR). A Biacore 3000 SPR instrument (Biacore, Piscataway, N.J.) in conjunction with CM5 research grade chips were used to conduct the Surface Plasmon Resonance (SPR) experiments, as previously described (Morgan, et al., A conserved clathrin assembly motif essential for synaptic vesicle endocytosis, J Neurosci 20(23):8667-8676, 2000; Morgan, et al., Uncoating of clathrin-coated vesicles in presynaptic terminals: Roles for Hsc70 and auxilin, Neuron 32(2):289-300, 200 1; Morgan, et al., Eps15 homology domain-NPF motif interactions regulate clathrin coat assembly during synaptic vesicle recycling, J Biol Chem 278(35):33583-33592, 2003). The experiments were performed at 25° C. using Biacore (Piscataway, N.J.) buffer (10 mM HEPES pH 7.4, 150 mM NaCl, 0.005% surfactant P20) supplemented with 2 mM ZnCl2 (HBS-P-Zn) or without ZnCl2 (HBS-P) as indicated. Injected samples also contained 2 mg/mL carboxymethyl-dextran to reduce non-specific association with the dextran matrix of the chip and a flow rate of 5 μL/min was used. […] The response unit or RU is a measure of surface charge density-oscillation and surface-plasmon-positron generation as detected by changes in incident refractive-index monitored by the Biacore optical unit. […]

IgG = test: Surface plasmon resonance, secPHEX analyte on immobilized IgG; type: binding; conditions: same chip
From the text: as §1

[1] = target: T2, full-length insect-expressed human-MEPE (Hu-MEPE) (human, UniProt Q9NQ76 18-525); test: SPR (Biacore 3000), MEPE immobilized on CM5 at 3500 RU, secPHEX analyte, HBS-P-Zn (2 mM ZnCl2)
T2 construct: also called recombinant Hu-MEPE; Matrix Extracellular Phosphoglycoprotein
T2 sequence: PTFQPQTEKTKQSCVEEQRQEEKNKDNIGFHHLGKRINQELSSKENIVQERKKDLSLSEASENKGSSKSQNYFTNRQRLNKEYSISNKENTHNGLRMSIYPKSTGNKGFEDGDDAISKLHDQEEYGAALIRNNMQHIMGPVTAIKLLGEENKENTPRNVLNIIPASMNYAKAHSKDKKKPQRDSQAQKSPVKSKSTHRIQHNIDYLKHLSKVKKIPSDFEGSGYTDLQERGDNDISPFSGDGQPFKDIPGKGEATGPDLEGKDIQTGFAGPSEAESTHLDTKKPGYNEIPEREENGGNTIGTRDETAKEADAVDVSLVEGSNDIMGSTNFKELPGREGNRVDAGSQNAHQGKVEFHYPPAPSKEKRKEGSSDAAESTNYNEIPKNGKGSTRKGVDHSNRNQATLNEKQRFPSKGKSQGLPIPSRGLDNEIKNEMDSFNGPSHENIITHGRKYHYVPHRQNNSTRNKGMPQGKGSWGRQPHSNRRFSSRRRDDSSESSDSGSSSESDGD
Procedure: The experiments were performed at 25° C. using Biacore (Piscataway, N.J.) buffer (10 mM HEPES pH 7.4, 150 mM NaCl, 0.005% surfactant P20) supplemented with 2 mM ZnCl₂ (HBS-P-Zn) or without ZnCl₂ (HBS-P) as indicated. Injected samples also contained 2 mg/mL carboxymethyl-dextran to reduce non-specific association with the dextran matrix of the chip and a flow rate of 5 μL/min was used. The surfaces of research grade CM5 chips were activated by a 6 min injection of a solution containing 0.2M N-ethyl-N9-(dimethylaminopropyl) carbodiimide and 0.05M N-hydroxy-succinimide. MEPE, PHEX and IgG were immobilized on the same chip (ligands) in different individual flow-cells. Each chip contains four separate flow-cells, one cell was left blank as a negative control. The experiments were repeated on two different chips with 3500 RU (response-units) and 6000 RU of immobilized proteins respectively. The response unit or RU is a measure of surface charge density-oscillation and surface-plasmon-positron generation as detected by changes in incident refractive-index monitored by the Biacore optical unit. Specifically, 1000 RU unit equals a change of approximately 1 ng/mm² in surface protein concentration on the chip surface. After immobilization, each surface was blocked by a 6 min injection of 1 M ethanolamine at pH 8.5. […]

chip-immobilized MEPE = target: T3, chip-immobilized MEPE (Homo sapiens, UniProt Q9NQ76); test: Surface plasmon resonance, secPHEX analyte on chip-immobilized MEPE; type: binding
T3 construct: Purified protein contained N-terminal amino acid residues APTFQ confirming cleavage of predicted nascent-MEPE signal-peptide; made in house; host or cells: Spodoptera frugiperda (sf9) insect cells, baculovirus
T3 sequence (Q9NQ76 18-525): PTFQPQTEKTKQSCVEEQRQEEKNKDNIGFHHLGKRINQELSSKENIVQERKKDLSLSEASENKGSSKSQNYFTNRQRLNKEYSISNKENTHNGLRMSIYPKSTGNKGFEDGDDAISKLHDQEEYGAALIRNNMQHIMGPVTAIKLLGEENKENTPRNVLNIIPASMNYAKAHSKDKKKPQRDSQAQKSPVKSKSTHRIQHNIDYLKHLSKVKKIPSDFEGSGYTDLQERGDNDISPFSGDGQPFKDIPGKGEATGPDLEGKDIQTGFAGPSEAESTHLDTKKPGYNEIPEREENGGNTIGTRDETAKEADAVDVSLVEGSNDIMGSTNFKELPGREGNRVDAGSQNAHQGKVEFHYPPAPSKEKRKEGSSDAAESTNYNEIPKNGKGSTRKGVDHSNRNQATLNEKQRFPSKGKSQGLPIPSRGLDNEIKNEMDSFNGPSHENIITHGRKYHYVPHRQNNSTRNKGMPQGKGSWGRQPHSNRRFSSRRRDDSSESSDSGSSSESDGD
From the text: Surface Plasmon Resonance (SPR). A Biacore 3000 SPR instrument (Biacore, Piscataway, N.J.) in conjunction with CM5 research grade chips were used to conduct the Surface Plasmon Resonance (SPR) experiments, as previously described (Morgan, et al., A conserved clathrin assembly motif essential for synaptic vesicle endocytosis, J Neurosci 20(23):8667-8676, 2000; Morgan, et al., Uncoating of clathrin-coated vesicles in presynaptic terminals: Roles for Hsc70 and auxilin, Neuron 32(2):289-300, 200 1; Morgan, et al., Eps15 homology domain-NPF motif interactions regulate clathrin coat assembly during synaptic vesicle recycling, J Biol Chem 278(35):33583-33592, 2003). The experiments were performed at 25° C. using Biacore (Piscataway, N.J.) buffer (10 mM HEPES pH 7.4, 150 mM NaCl, 0.005% surfactant P20) supplemented with 2 mM ZnCl2 (HBS-P-Zn) or without ZnCl2 (HBS-P) as indicated. Injected samples also contained 2 mg/mL carboxymethyl-dextran to reduce non-specific association with the dextran matrix of the chip and a flow rate of 5 μL/min was used. The surfaces of research grade CM5 chips were activated by a 6 min injection of a solution containing 0.2M N-ethyl-N9-(dimethylaminopropyl) carbodiimide and 0.05M N-hydroxy-succinimide. MEPE, PHEX and IgG were immobilized on the same chip (ligands) in different individual flow-cells. Each chip contains four separate flow-cells, one cell was left blank as a negative control. The experiments were repeated on two different chips with 3500 RU (response-units) and 6000 RU of immobilized proteins respectively. The response unit or RU is a measure of surface charge density-oscillation and surface-plasmon-positron generation as detected by changes in incident refractive-index monitored by the Biacore optical unit. Specifically, 1000 RU unit equals a change of approximately 1 ng/mm^2 in surface protein concentration on the chip surface. After immobilization, each surface was blocked by a 6 min injection of 1 M ethanolamine at pH 8.5. […]

EC50 [1]: 553 nM
binding of secPHEX to MEPE in buffer lacking ZnCl2 (chip-immobilized MEPE; HBS-P, secPHEX up to 10 uM): No interaction
binding of secPHEX to MEPE (chip-immobilized MEPE; HBS-P-Zn buffer, saturation at 10 uM secPHEX): dose dependent
Bmax of secPHEX binding to immobilized MEPE (chip-immobilized MEPE; MEPE 3500 RU): 680 RU
B1: mammalian expressed human recombinant secreted PHEX (secPHEX) (enzyme, UniProt P78562 46-749, looked up)
chain: SLQAKQEYCLKPECIEAAAAILSKVNLSVDPCDNFFRFACDGWISNNPIPEDMPSYGVYPWLRHNVDLKLKELLEKSISRRRDTEAIQKAKILYSSCMNEKAIEKADAKPLLHILRHSPFRWPVLESNIGPEGVWSERKFSLLQTLATFRGQYSNSVFIRLYVSPDDKASNEHILKLDQATLSLAVREDYLDNSTEAKSYRDALYKFMVDTAVLLGANSSRAEHDMKSVLRLEIKIAEIMIPHENRTSEAMYNKMNISELSAMIPQFDWLGYIKKVIDTRLYPHLKDISPSENVVVRVPQYFKDLFRILGSERKKTIANYLVWRMVYSRIPNLSRRFQYRWLEFSRVIQGTTTLLPQWDKCVNFIESALPYVVGKMFVDVYFQEDKKEMMEELVEGVRWAFIDMLEKENEWMDAGTKRKAKEKARAVLAKVGYPEFIMNDTHVNEDLKAIKFSEADYFGNVLQTRKYLAQSDFFWLRKAVPKTEWFTNPTTVNAFYSASTNQIRFPAGELQKPFFWGTEYPRSLSYGAIGVIVGHEFTHGFDNNGRKYDKNGNLDPWWSTESEEKFKEKTKCMINQYSNYYWKKAGLNVKGKRTLGENIADNGGLREAFRAYRKWINDRRQGLEEPLLPGITFTNNQLFFLSYAHVRCNSYRPEAAREQVQIGAHSPPQFRVNGAISNFEEFQKAFNCPPNSTMNRGMDSCRLW
notes: Gift from Crine and Boileau; Used as SPR analyte and also immobilized as ligand; also called soluble mammalian expressed PHEX
interaction of secPHEX analyte with chip-immobilized secPHEX (chip-immobilized secPHEX): very low-level barely-detectable autologous-interaction
interaction of secPHEX with control IgG (IgG): no significant signals; also recorded: No interaction

— US20070099822A1, “Regulation of tissue mineralization and phosphate metabolism by asarm peptides” (priority 2003, published 2007)
